Source: publication PMC9482650, “Quantitative fragmentomics allow affinity mapping of interactomes” (Nature Communications, 2022)

What was measured:
Experiment in all cases: holdup assay
Parameters in all cases: key: below the threshold = too weak to quantify, mostly under pKd 3.1 to 4
APBA2_1, Q99767 = target: T1, APBA2_1, Q99767
T1 sequence (Q99767 563-664, limits assumed, looked up): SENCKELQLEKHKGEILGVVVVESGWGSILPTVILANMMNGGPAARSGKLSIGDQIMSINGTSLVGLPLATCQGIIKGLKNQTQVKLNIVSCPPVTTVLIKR

DFNB31_1, Q9P202 = target: T2, DFNB31_1, Q9P202
T2 sequence (Q9P202 135-233, limits assumed, looked up): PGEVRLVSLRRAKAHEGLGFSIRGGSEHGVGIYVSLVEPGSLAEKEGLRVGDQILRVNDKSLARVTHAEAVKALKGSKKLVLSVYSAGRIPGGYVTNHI

DFNB31_3, Q9P202 = target: T3, DFNB31_3, Q9P202
T3 sequence (Q9P202 811-907, limits assumed, looked up): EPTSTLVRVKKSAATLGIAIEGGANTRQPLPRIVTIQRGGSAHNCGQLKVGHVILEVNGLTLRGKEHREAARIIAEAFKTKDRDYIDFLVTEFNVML

DLG2_2, Q15700 = target: DLG2_2, Q15700
DLG2_3, Q15700 = target: DLG2_3, Q15700
DLG5_1, Q8TDM6 = target: DLG5_1, Q8TDM6
FRMPD1, Q5SYB0 = target: T4, FRMPD1, Q5SYB0
T4 sequence (Q5SYB0 52-145, limits assumed, looked up): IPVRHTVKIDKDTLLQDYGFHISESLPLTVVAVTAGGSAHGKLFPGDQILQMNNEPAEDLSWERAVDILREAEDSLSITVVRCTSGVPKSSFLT

GOPC, Q9HD26 = target: GOPC, Q9HD26
GORASP1, Q9BQQ3 = target: GORASP1, Q9BQQ3
GRIP2_3, Q9C0E4 = target: GRIP2_3, Q9C0E4
GRIP2_4, Q9C0E4 = target: GRIP2_4, Q9C0E4
GRIP2_5, Q9C0E4 = target: GRIP2_5, Q9C0E4
GRIP2_6, Q9C0E4 = target: GRIP2_6, Q9C0E4
HTRA1, Q92743 = target: HTRA1, Q92743
Inadl_1, Q8NI35 = target: Inadl_1, Q8NI35
Inadl_6, Q8NI35 = target: Inadl_6, Q8NI35
LAP2, Q96RT1 = target: LAP2, Q96RT1
LNX1_3, Q8TBB1 = target: LNX1_3, Q8TBB1
MAGI1_1, Q96QZ7 = target: MAGI1_1, Q96QZ7
MAST2, Q6P0Q8 = target: MAST2, Q6P0Q8
MPDZ_5, O75970 = target: T5, MPDZ_5, O75970
T5 sequence (O75970 695-796, limits assumed, looked up): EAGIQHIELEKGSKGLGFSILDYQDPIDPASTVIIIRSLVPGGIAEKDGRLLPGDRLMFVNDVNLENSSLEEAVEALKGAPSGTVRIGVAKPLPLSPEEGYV

NHERF4_1, Q86UT5-2 = target: NHERF4_1, Q86UT5-2
NHERF4_4, Q86UT5 = target: NHERF4_4, Q86UT5
PARD3B_1, Q8TEW8 = target: T6, PARD3B_1, Q8TEW8
T6 sequence (Q8TEW8 196-299, limits assumed, looked up): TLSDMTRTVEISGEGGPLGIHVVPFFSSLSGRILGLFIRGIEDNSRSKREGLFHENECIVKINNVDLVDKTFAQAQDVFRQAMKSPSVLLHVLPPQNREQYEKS

RHPN1, Q8TCX5 = target: T7, RHPN1, Q8TCX5
T7 sequence (Q8TCX5 508-602, limits assumed, looked up): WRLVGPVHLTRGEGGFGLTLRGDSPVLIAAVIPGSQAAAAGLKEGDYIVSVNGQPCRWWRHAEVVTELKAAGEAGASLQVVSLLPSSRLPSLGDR

SCRIB_1, Q14160 = target: SCRIB_1, Q14160
SHANK1, Q9Y566 = target: T8, SHANK1, Q9Y566
T8 sequence (Q9Y566 658-767, limits assumed, looked up): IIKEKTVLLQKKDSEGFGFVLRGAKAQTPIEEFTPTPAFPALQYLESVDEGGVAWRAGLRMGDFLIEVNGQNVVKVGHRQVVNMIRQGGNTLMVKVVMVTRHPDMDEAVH

TJP3_3, O95049 = target: T9, TJP3_3, O95049
T9 sequence (O95049 375-456, limits assumed, looked up): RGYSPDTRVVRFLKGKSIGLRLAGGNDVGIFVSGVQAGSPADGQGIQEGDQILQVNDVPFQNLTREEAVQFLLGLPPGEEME

[1] = plain residues with an end cap or a label only (N-terminal biotin on a linker: ttds)
[2] = plain residues with an end cap or a label only (N-terminal biotin on a linker: ahx)

Chain of LAP2, Q96RT1 (Q96RT1 other isoform, or with tags, fused parts or gaps): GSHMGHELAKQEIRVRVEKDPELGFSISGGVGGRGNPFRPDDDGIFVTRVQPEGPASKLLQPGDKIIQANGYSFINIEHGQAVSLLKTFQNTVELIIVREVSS
Chain of GRIP2_3, Q9C0E4 (Q9C0E4 238-339): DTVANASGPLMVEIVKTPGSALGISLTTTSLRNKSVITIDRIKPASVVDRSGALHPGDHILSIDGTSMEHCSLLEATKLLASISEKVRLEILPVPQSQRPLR
Chain of NHERF4_1, Q86UT5-2 (Q86UT5 other isoform, or with tags, fused parts or gaps): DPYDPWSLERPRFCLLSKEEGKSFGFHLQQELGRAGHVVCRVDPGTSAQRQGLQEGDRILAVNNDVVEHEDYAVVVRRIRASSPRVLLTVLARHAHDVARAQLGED
Chain of Inadl_1, Q8NI35 (Q8NI35 113-229): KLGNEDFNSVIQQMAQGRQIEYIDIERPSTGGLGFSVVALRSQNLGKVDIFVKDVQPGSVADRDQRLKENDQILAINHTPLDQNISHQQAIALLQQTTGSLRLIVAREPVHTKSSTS
Chain of Inadl_6, Q8NI35 (Q8NI35 1058-1167): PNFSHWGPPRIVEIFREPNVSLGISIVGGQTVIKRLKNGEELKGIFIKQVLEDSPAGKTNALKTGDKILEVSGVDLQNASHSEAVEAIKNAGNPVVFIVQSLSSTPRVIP
Chain of HTRA1, Q92743 (Q92743 360-477): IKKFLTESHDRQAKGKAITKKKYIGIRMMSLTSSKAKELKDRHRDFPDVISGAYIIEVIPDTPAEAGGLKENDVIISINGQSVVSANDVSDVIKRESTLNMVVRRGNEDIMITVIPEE
Chain of GRIP2_4, Q9C0E4 (Q9C0E4 446-548): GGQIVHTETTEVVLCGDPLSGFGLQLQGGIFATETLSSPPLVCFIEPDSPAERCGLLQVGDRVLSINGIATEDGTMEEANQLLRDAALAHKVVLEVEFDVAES
Chain of MAGI1_1, Q96QZ7 (Q96QZ7 1-106): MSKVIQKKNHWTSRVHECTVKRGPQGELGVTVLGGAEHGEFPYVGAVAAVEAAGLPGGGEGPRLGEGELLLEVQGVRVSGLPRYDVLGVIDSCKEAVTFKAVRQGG
Chain of GRIP2_5, Q9C0E4 (Q9C0E4 544-642): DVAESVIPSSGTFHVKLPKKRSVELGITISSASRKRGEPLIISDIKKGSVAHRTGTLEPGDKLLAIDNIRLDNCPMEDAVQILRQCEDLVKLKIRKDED
Chain of NHERF4_4, Q86UT5 (Q86UT5 464-550): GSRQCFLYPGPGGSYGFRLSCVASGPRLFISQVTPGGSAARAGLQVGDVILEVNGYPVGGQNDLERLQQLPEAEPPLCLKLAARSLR
Chain of LNX1_3, Q8TBB1 (Q8TBB1 500-596): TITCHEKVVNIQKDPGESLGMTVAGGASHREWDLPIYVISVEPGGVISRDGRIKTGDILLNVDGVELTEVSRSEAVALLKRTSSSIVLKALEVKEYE
Chain of GRIP2_6, Q9C0E4 (Q9C0E4 648-740): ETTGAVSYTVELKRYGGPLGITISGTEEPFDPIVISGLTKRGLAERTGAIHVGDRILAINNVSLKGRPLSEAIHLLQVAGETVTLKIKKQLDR
Chain of SCRIB_1, Q14160 (Q14160 718-814): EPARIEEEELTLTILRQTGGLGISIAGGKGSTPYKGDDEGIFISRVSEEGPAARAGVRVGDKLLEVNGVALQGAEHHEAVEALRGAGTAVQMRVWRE
Chain of GORASP1, Q9BQQ3 (Q9BQQ3 1-208): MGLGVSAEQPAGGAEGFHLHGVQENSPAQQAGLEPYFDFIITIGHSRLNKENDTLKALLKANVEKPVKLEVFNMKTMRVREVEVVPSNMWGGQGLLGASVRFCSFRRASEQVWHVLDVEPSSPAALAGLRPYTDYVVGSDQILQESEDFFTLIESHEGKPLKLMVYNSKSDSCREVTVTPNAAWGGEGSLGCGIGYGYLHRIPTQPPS
Chain of DLG5_1, Q8TDM6 (Q8TDM6 617-713): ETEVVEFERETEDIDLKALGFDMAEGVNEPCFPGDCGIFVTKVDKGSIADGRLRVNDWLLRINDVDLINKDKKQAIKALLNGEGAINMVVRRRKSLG
Chain of MAST2, Q6P0Q8 (Q6P0Q8 1099-1202): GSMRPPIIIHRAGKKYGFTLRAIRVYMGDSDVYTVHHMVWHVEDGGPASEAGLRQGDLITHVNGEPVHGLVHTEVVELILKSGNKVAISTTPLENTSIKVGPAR

ERKLSSESQV [LRP4, O75096]
pKd (APBA2_1, Q99767; [1]): below the threshold
pKd (DFNB31_1, Q9P202; [1]): below the threshold
pKd (DFNB31_3, Q9P202; [1]): below the threshold
pKd (DLG2_2, Q15700; [1]): 4.38
pKd (DLG2_3, Q15700; [1]): 4.11
pKd (DLG5_1, Q8TDM6; [1]): below the threshold
pKd (FRMPD1, Q5SYB0; [1]): below the threshold
pKd (GOPC, Q9HD26; [1]): below the threshold
pKd (GORASP1, Q9BQQ3; [1]): below the threshold
pKd (GRIP2_3, Q9C0E4; [1]): below the threshold
pKd (GRIP2_4, Q9C0E4; [1]): below the threshold
pKd (GRIP2_5, Q9C0E4; [1]): below the threshold
pKd (GRIP2_6, Q9C0E4; [1]): below the threshold
pKd (HTRA1, Q92743; [1]): below the threshold
pKd (Inadl_1, Q8NI35; [1]): below the threshold
pKd (Inadl_6, Q8NI35; [1]): below the threshold
pKd (LAP2, Q96RT1; [1]): 3.74
pKd (LNX1_3, Q8TBB1; [1]): below the threshold
pKd (MAGI1_1, Q96QZ7; [1]): below the threshold
pKd (MAST2, Q6P0Q8; [1]): 4.34
pKd (MPDZ_5, O75970; [1]): below the threshold
pKd (NHERF4_1, Q86UT5-2; [1]): below the threshold
pKd (NHERF4_4, Q86UT5; [1]): below the threshold
pKd (PARD3B_1, Q8TEW8; [1]): below the threshold
pKd (RHPN1, Q8TCX5; [1]): 3.96
pKd (SCRIB_1, Q14160; [1]): 3.63
pKd (SHANK1, Q9Y566; [1]): below the threshold
pKd (TJP3_3, O95049; [1]): below the threshold

HTHSYIETHV [CNKSR2, Q8WXI2]
pKd (APBA2_1, Q99767; [2]): below the threshold
pKd (DFNB31_1, Q9P202; [2]): 4.23
pKd (DFNB31_3, Q9P202; [2]): below the threshold
pKd (DLG2_2, Q15700; [2]): 4.42
pKd (DLG2_3, Q15700; [2]): 4.54
pKd (DLG5_1, Q8TDM6; [2]): below the threshold
pKd (FRMPD1, Q5SYB0; [2]): below the threshold
pKd (GOPC, Q9HD26; [2]): below the threshold
pKd (GORASP1, Q9BQQ3; [2]): below the threshold
pKd (GRIP2_3, Q9C0E4; [2]): below the threshold
pKd (GRIP2_4, Q9C0E4; [2]): below the threshold
pKd (GRIP2_5, Q9C0E4; [2]): below the threshold
pKd (GRIP2_6, Q9C0E4; [2]): below the threshold
pKd (HTRA1, Q92743; [2]): 3.84
pKd (Inadl_1, Q8NI35; [2]): below the threshold
pKd (Inadl_6, Q8NI35; [2]): 4.22
pKd (LAP2, Q96RT1; [2]): 5.51
pKd (LNX1_3, Q8TBB1; [2]): below the threshold
pKd (MAGI1_1, Q96QZ7; [2]): below the threshold
pKd (MAST2, Q6P0Q8; [2]): 5.29
pKd (MPDZ_5, O75970; [2]): below the threshold
pKd (NHERF4_1, Q86UT5-2; [2]): below the threshold
pKd (NHERF4_4, Q86UT5; [2]): below the threshold
pKd (PARD3B_1, Q8TEW8; [2]): below the threshold
pKd (RHPN1, Q8TCX5; [2]): 5.21
pKd (SCRIB_1, Q14160; [2]): 5.64
pKd (SHANK1, Q9Y566; [2]): 4.24
pKd (TJP3_3, O95049; [2]): below the threshold

SRPQRTQTQV [HPV67-E6, A4U7F2]
pKd (APBA2_1, Q99767; [1]): below the threshold
pKd (DFNB31_1, Q9P202; [1]): below the threshold
pKd (DFNB31_3, Q9P202; [1]): below the threshold
pKd (DLG2_2, Q15700; [1]): 4.81
pKd (DLG2_3, Q15700; [1]): 4.52
pKd (DLG5_1, Q8TDM6; [1]): below the threshold
pKd (FRMPD1, Q5SYB0; [1]): below the threshold
pKd (GOPC, Q9HD26; [1]): 3.58
pKd (GORASP1, Q9BQQ3; [1]): below the threshold
pKd (GRIP2_3, Q9C0E4; [1]): below the threshold
pKd (GRIP2_4, Q9C0E4; [1]): below the threshold
pKd (GRIP2_5, Q9C0E4; [1]): below the threshold
pKd (GRIP2_6, Q9C0E4; [1]): below the threshold
pKd (HTRA1, Q92743; [1]): below the threshold
pKd (Inadl_1, Q8NI35; [1]): below the threshold
pKd (Inadl_6, Q8NI35; [1]): below the threshold
pKd (LAP2, Q96RT1; [1]): below the threshold
pKd (LNX1_3, Q8TBB1; [1]): below the threshold
pKd (MAGI1_1, Q96QZ7; [1]): below the threshold
pKd (MAST2, Q6P0Q8; [1]): 5.27
pKd (MPDZ_5, O75970; [1]): below the threshold
pKd (NHERF4_1, Q86UT5-2; [1]): below the threshold
pKd (NHERF4_4, Q86UT5; [1]): below the threshold
pKd (PARD3B_1, Q8TEW8; [1]): below the threshold
pKd (RHPN1, Q8TCX5; [1]): 3.84
pKd (SCRIB_1, Q14160; [1]): below the threshold
pKd (SHANK1, Q9Y566; [1]): below the threshold
pKd (TJP3_3, O95049; [1]): below the threshold
